Values joined by “and” are separate entries in the source; they are usually repeats but may differ in a detail not shown here. Identical values can stand only once.
B1: SpcU(1–127) (domain or fragment)
chain: MIDTWLAQWGLRLPSSNDATLRLQPAEGPELVMERLEGGWLFVVELGLVPSGLPLGVILQLLQVNSPFSSLAPVKLAADDAGRLVLWAEARDGVDDVDALNRLHDRLREGHSRLVPLLEPTGELVPA
modifications: selenomethionine in the crystals (SAD on the selenium edge)
notes: SpcU, type IA T3SS chaperone of ExoU, Pseudomonas aeruginosa; full length is 1-137; stop codon introduced after residue 127; amplified from a clinical strain (GESPA 1999 collection); also called chaperone SpcU

Columns and labels:
[1] = molecular target: ExoU(30–687) (Pseudomonas aeruginosa (clinical strain, GESPA 1999 collection)) (UniProt O34208); assay: native MS; purified ExoU∶SpcU complex, 15 µM in 20 mM ammonium acetate, electrospray, positive mode, Micro-TOF-Q
[2] = molecular target: the molecule itself; assay: crystal structure; co-expressed, co-purified ExoU(30–687)∶SpcU(1–127) complex; crystals in 0.1 M KNO3, 20% PEG 3350; SAD on the selenium edge, C2 cell, 2.94 Å

Row | Molecule | stoichiometry N (SpcU per ExoU (printed as ExoU∶SpcU)) [1] | binding result [2]
1 | SpcU(1–127) (from UniProt O66100 1-127) (domain or fragment) | 1 and 2 | 
2 | B1 |  | binds

From article PMC3320612, “Structural Basis of Cytotoxicity Mediated by the Type III Secretion Toxin ExoU from Pseudomonas aeruginosa” (PLoS Pathogens, 2012)
